The record followed here is article PMC9314330, “Structural basis of human TREX1 DNA degradation and autoimmune disease” (Nature Communications, 2022).

Data set [1] deals with T1, hTREX1 K160R (Homo sapiens, UniProt Q9NSU2 1-242, K160R).
T1 sequence: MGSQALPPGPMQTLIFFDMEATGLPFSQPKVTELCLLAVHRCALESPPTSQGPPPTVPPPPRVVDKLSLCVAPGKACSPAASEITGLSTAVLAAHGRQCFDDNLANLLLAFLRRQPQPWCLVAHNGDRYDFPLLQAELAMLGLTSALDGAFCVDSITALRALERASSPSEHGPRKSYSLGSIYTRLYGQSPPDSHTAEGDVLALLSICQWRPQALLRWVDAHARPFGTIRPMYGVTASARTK
Nature of the data set: thermal shift (thermofluor); 10 uM protein; 10 or 20 uM DNA; higher than WT; Tm about 63.2 C at 20 uM DNA (mean of source data, column order inferred); EMSA: 20 mM HEPES-NaOH pH 7.8, 75 mM KCl, 10 mM EDTA, 1 mM DTT, 4 C 30 min, 2% agarose; thermofluor: 20 mM Tris-HCl pH 7.5, 75 mM KCl, 1 mM TCEP, DNA preincubated at 4 C 30 min, 20-95 C ramp; crystals: 20 mM HEPES-KOH pH 7.5, 78 mM KCl, 1 mM TCEP over 0.05 M Li2SO4, …. The conditions noted are these: protein: recombinant; tags: none (His-SUMO2 removed by SENP2); chain copies: 2; blunt; self-complementary strand.

Data set [2] deals with the molecule itself. Nature of the data set: crystal structure; WT hTREX1 with 22-nt Y-form dsDNA (1:1.3 protein:DNA), 0.05 M Li2SO4, 0.1 M Bis-Tris pH 6.5, 25% PEG-3350, 18 °C; spacegroup P 1 21 1, 3 copies of hTREX1-DNA dimer in the asymmetric unit.
Data set [3] deals with the molecule itself. Nature of the data set: crystal structure; apo hTREX1 chimeras, hanging-drop vapor diffusion at 18 °C; spacegroup P 41 21 2, one hTREX1 dimer in the asymmetric unit.

B1: 30-bp dsDNA (dsDNA)
DNA 1: GCTCGAGTCATGACGCGTCATGACTCGAGC
DNA 2: GCTCGAGTCATGACGCGTCATGACTCGAGC
Consider B1, for which the binding result in data set [1] is “binds”.

B2: human TREX1 (wildtype), N-terminal enzymatic domain, amino acids 1-242 (enzyme, UniProt Q9NSU2-3 1-242, looked up)
chain: MGSQALPPGPMQTLIFFDMEATGLPFSQPKVTELCLLAVHRCALESPPTSQGPPPTVPPPPRVVDKLSLCVAPGKACSPAASEITGLSTAVLAAHGRQCFDDNLANLLLAFLRRQPQPWCLVAHNGDRYDFPLLQAELAMLGLTSALDGAFCVDSITALKALERASSPSEHGPRKSYSLGSIYTRLYGQSPPDSHTAEGDVLALLSICQWRPQALLRWVDAHARPFGTIRPMYGVTASARTK
notes: human TREX1, C-terminal truncation, amino acids 1-242 of the 314-residue protein (catalytic domain 1-242, C-terminus 243-314); numbers count on: the 314-residue form; Crystallised with 22-nt Y-form dsDNA (2:2 complex); also called hTREX1; WT hTREX1; source: E. coli BL21-RIL DE3, purified (Ni-NTA, Heparin HP, Superdex S75)
Consider B2, for which the binding result in data set [2] is “binds”.

B3: hTREX1 Chi 5.1 (A5T/P8H/P10H), amino acids 1-242 (enzyme, human, UniProt Q9NSU2-3 1-242, looked up)
chain: MGSQTLPHGHMQTLIFFDMEATGLPFSQPKVTELCLLAVHRCALESPPTSQGPPPTVPPPPRVVDKLSLCVAPGKACSPAASEITGLSTAVLAAHGRQCFDDNLANLLLAFLRRQPQPWCLVAHNGDRYDFPLLQAELAMLGLTSALDGAFCVDSITALKALERASSPSEHGPRKSYSLGSIYTRLYGQSPPDSHTAEGDVLALLSICQWRPQALLRWVDAHARPFGTIRPMYGVTASARTK
notes: human TREX1, amino acids 1-242 of the 314-residue protein, with three mouse-like mutations; numbers count on: the 314-residue form; also called human TREX1 Chi 5.1; source: E. coli BL21-RIL DE3, purified (Ni-NTA, Heparin HP, Superdex S75)
For the molecule B3, in data set [3], the binding result is listed as “binds”.
